# System: Escherichia coli TOP10
# Assay: shrunken log2 fold change of peptide-encoding DNA abundance (4.5 h post-induction vs induction); higher = less antimicrobial activity (less host growth inhibition)
# Conditions: time post-induction: 4.5 h; library: site-saturation at positions 5, 18, 19, 20
# 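Also: peptides expressed intracellularly from a pBAD plasmid library in pooled LB shake-flask culture, induced with 0.3% L-arabinose, DNA abundance read by NGS, three biological replicates, DESeq2 with apeglm shrinkage.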
row,Sequence,shrunken log2 fold change
1,RRIRTRPPRLPRPRPRPDCNPRP,0.0556
2,RRIRGRPPRLPRPRPRPFQEPRP,0.0152
3,RRIRARPPRLPRPRPRPLTMPRP,0.637
4,RRIRRRPPRLPRPRPRPHINPRP,-0.432
5,RRIRVRPPRLPRPRPRPNHNPRP,-0.638
6,RRIRTRPPRLPRPRPRPMLPPRP,-0.0543
7,RRIRWRPPRLPRPRPRPFKDPRP,-0.252
8,RRIRHRPPRLPRPRPRPYCPPRP,-0.0225
9,RRIRKRPPRLPRPRPRPNEQPRP,0.11
10,RRIRIRPPRLPRPRPRPMMQPRP,-0.0907
11,RRIRRRPPRLPRPRPRPGTNPRP,0.0926
12,RRIRERPPRLPRPRPRPACMPRP,-0.0379
13,RRIRGRPPRLPRPRPRPKNCPRP,-0.111
14,RRIRNRPPRLPRPRPRPPFDPRP,0.141
15,RRIRQRPPRLPRPRPRPFMEPRP,0.212
16,RRIRQRPPRLPRPRPRPAFQPRP,0.0837
17,RRIRRRPPRLPRPRPRPLSMPRP,0.263
18,RRIRFRPPRLPRPRPRPAWDPRP,0.0926
19,RRIRHRPPRLPRPRPRPGIKPRP,0.0126
20,RRIRHRPPRLPRPRPRPFTQPRP,-0.0771
21,RRIRMRPPRLPRPRPRPQALPRP,0.0439
22,RRIRERPPRLPRPRPRPWCTPRP,-0.391
23,RRIRSRPPRLPRPRPRPLTGPRP,0.043
24,RRIRRRPPRLPRPRPRPGMPPRP,0.463
25,RRIRCRPPRLPRPRPRPLADPRP,0.4

row,Sequence,shrunken log2 fold change
1,RRIRKRPPRLPRPRPRPPRCPRP,0.578
2,RRIRVRPPRLPRPRPRPISAPRP,1.18
3,RRIRFRPPRLPRPRPRPTAPPRP,0.602
4,RRIRIRPPRLPRPRPRPLMHPRP,-0.384
5,RRIRFRPPRLPRPRPRPRCWPRP,0.309
6,RRIRWRPPRLPRPRPRPYSKPRP,-0.492
7,RRIRCRPPRLPRPRPRPMNPPRP,-0.24
8,RRIRHRPPRLPRPRPRPAELPRP,-0.00261
9,RRIRWRPPRLPRPRPRPGTMPRP,-0.153
10,RRIRPRPPRLPRPRPRPPHDPRP,0.572
11,RRIRIRPPRLPRPRPRPLAGPRP,0.00712
12,RRIRFRPPRLPRPRPRPRQEPRP,0.0178
13,RRIRPRPPRLPRPRPRPAYKPRP,-0.302
14,RRIRRRPPRLPRPRPRPMRSPRP,0.579
15,RRIRIRPPRLPRPRPRPVNCPRP,-0.34
16,RRIRLRPPRLPRPRPRPGLQPRP,-0.166
17,RRIRVRPPRLPRPRPRPWQRPRP,0.0171
18,RRIRPRPPRLPRPRPRPEIFPRP,0.137
19,RRIRSRPPRLPRPRPRPTFNPRP,-0.366
20,RRIRPRPPRLPRPRPRPVVFPRP,0.0396
21,RRIRNRPPRLPRPRPRPLYDPRP,-0.0765
22,RRIRYRPPRLPRPRPRPTAWPRP,-0.011
23,RRIRRRPPRLPRPRPRPRWMPRP,0.25
24,RRIRWRPPRLPRPRPRPPVYPRP,-0.0994
25,RRIRMRPPRLPRPRPRPSYIPRP,-0.275

row,Sequence,shrunken log2 fold change
1,RRIRKRPPRLPRPRPRPGAQPRP,0.496
2,RRIRYRPPRLPRPRPRPTKAPRP,-0.0298
3,RRIRERPPRLPRPRPRPYVFPRP,-0.575
4,RRIRARPPRLPRPRPRPMAGPRP,0.163
5,RRIRNRPPRLPRPRPRPVFHPRP,-0.256
6,RRIRKRPPRLPRPRPRPSCSPRP,-0.0597
7,RRIRARPPRLPRPRPRPTLEPRP,0.388
8,RRIRFRPPRLPRPRPRPTMGPRP,0.0497
9,RRIRNRPPRLPRPRPRPSQCPRP,-0.13
10,RRIRTRPPRLPRPRPRPHAFPRP,-0.128
11,RRIRHRPPRLPRPRPRPIMWPRP,-0.0163
12,RRIRMRPPRLPRPRPRPDEGPRP,-0.0141
13,RRIRRRPPRLPRPRPRPLENPRP,0.194
14,RRIRMRPPRLPRPRPRPSCYPRP,-0.348
15,RRIRQRPPRLPRPRPRPKNYPRP,-0.216
16,RRIRTRPPRLPRPRPRPSCDPRP,-0.347
17,RRIRARPPRLPRPRPRPKMHPRP,0.364
18,RRIRWRPPRLPRPRPRPDPGPRP,-0.041
19,RRIRARPPRLPRPRPRPQFIPRP,-0.382
20,RRIRCRPPRLPRPRPRPAVHPRP,0.0826
21,RRIRARPPRLPRPRPRPVKMPRP,0.163
22,RRIRLRPPRLPRPRPRPQKSPRP,-0.139
23,RRIRPRPPRLPRPRPRPRGLPRP,0.198
24,RRIRCRPPRLPRPRPRPMHWPRP,0.00478
25,RRIRMRPPRLPRPRPRPGCHPRP,0.0532

# From the supplement of paper PMC9112550, “Optimization of the antimicrobial peptide Bac7 by deep mutational scanning” (BMC Biology, 2022)
